Laboratory results from US20250034594A1, “RNA-GUIDED GENOME RECOMBINEERING AT KILOBASE SCALE” (THE BOARD OF TRUSTEES OF THE LELAND STANFORD JUNIOR …, priority 2021, published 2025).

Tests used:
Assay type in all cases: cell-based
[1] = test system: gene editing with Cas9 and dCas9; experiment: Screen of 322 new SSAP proteins, activity across all experiments (Cas9 and dCas9, Table 5); parameters: scale not given here
Summary of the method: (§1)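 The 322 SSAP proteins were found in sequence data and then synthesized. Each was screened for gene editing activity when paired with Cas9 and with dCas9.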

gene editing with dCas9 = experiment: Screen of 322 new SSAP proteins, gene editing activity with dCas9 (Table 5); parameters: dCas9 with SSAP activity: scale not given here
Summary of the method: as §1

gene editing with Cas9 = experiment: Screen of 322 new SSAP proteins, gene editing activity with Cas9 (Table 5); parameters: Cas9 with SSAP activity: scale not given here
Summary of the method: as §1

B1: SSAP_11: SEQ ID NO: 180; Bet Lactococcus phage phiLC3 (protein, listed as Lactococcus lactis)
chain: ANEIDIYDAKNLNTATVKKFLKGGGQASDEELAMLLAISRNQNMNPFMKEVYFIKYGSAAAQIVVSRDFYRKRAFQNPNFAGIEVGVIVLNKDGVLEHNEGTFKTKDQELVGAWARVHLKNTEIPVYVAVSYDEYVQMKNGQPNSMWTNKPCTMLGKVAESQALRMAFPAEFSGTYGEEEYPEPEKEPREVNGVKEPDRAQIESFDKENYAARKIEELKEKAQPQKEFVEEIGEAIDEITAEDF
Activity across all experiments [1]: −1.223
dCas9 with SSAP activity (gene editing with dCas9): −0.655
dCas9 with SSAP activity (normalized) (gene editing with dCas9): −0.866
Cas9 with SSAP activity (gene editing with Cas9): −1.791
Cas9 with SSAP activity (normalized) (gene editing with Cas9): −0.870

B2: SSAP_69: SEQ ID NO: 238 (protein)
chain: ETIDIKQELASQAQTDSKKEVKLTKAMSIAEMIKAMMPEIKRALPSMITPERFTRIALSALNNTPELQACTPMSFISALLNAAQLGLEINSPLGHAYLIPYKNKGVLECQFQIGYLGLIALAYRNELMQTIQAQCVYENDEFLYEYGLNPKLVHRPATSDRGEPVFFYGLFKMINSGFGFCVMSKQEMDEFARTYSKGLASSFSPWKTSYNEMAKKTVIKQALKYAPIKTDFQKALSTDESIKYAISEDMTEAVNEIVSQNTEVA
Activity across all experiments [1]: −3.014
dCas9 with SSAP activity (gene editing with dCas9): −0.742
dCas9 with SSAP activity (normalized) (gene editing with dCas9): −0.240
Cas9 with SSAP activity (gene editing with Cas9): −5.286
Cas9 with SSAP activity (normalized) (gene editing with Cas9): −0.810

B3: SSAP_71: SEQ ID NO: 240 (protein)
chain: SNNELLAKPVEFEVNGEAVKLTGKTVKNFLVSGNGEVSDQEVVMFINLCKYQKLNPFLNEAYLVKFKSKSGPDKPAQVIVSKEAFMKRAEKHPNYEGFEAGIIVERDGQLVDIEGAIKLTNDKLVGGWARVYRSDRQKPITTRISLSEFSKGQSTWNSMPLTMIRKSAIVNAQREAFPETLGALYTEDDAKLDTTSSHDQEQVIEQEIKTKANQEVIDVEYTEESEQKSPQQEQTETTQAGPGF
Activity across all experiments [1]: −1.249
dCas9 with SSAP activity (gene editing with dCas9): −0.701
dCas9 with SSAP activity (normalized) (gene editing with dCas9): −0.555
Cas9 with SSAP activity (gene editing with Cas9): −1.797
Cas9 with SSAP activity (normalized) (gene editing with Cas9): −2.283

B4: SSAP_316: SEQ ID NO: 485; Companilactobacillus kedongensis (protein, listed as Companilactobacillus kedongensis)
chain: MKDLARIPVKELVRSDTIKSKFNDVLGKRAPQFISSIVNIVNSNQDLKNVDQTSVISSALVAASLDLPINQSFGYMYLVPYSGKAQPQMGYKGYIQLAQRSGQYKRLNAISVSKEKVPDKMVIFIPDYRMEEAETQIDMYQDHIEDVKAGRVEPTRCGKCDYCKSTAKLGKIVSMDDLID
Activity across all experiments [1]: −0.150
dCas9 with SSAP activity (gene editing with dCas9): −0.764
dCas9 with SSAP activity (normalized) (gene editing with dCas9): −0.279
Cas9 with SSAP activity (gene editing with Cas9): 0.465
Cas9 with SSAP activity (normalized) (gene editing with Cas9): 0.410

B5: SSAP_187: SEQ ID NO: 356; Staphylococcus warneri (protein, listed as Staphylococcus warneri)
chain: ATQNDFKNQITDKKENKPQQSTNPRQVASDLLERMKPEIAKALPAHMSQDRMTRIALSAVNSNPKLSEVILNNPTSFLGALMQSAQLGLEPNTNLGHAYLIPYGNIVQLQLGYLGLLELAYRSGKYQKIMAMPVYKDDFFEYQYGTDEKLNHIPAQQQTGDAVGYYAFYKLTNGGTHFVYWSRQKMNMHQQQYSKGGNVWRNNFDAMALKTVIKDVLKYAPKSIEMGEAVTSDNNNFDFKDGGDIIDVTDYETEEN
Activity across all experiments [1]: −0.120
dCas9 with SSAP activity (gene editing with dCas9): −0.498
dCas9 with SSAP activity (normalized) (gene editing with dCas9): −0.164
Cas9 with SSAP activity (gene editing with Cas9): 0.257
Cas9 with SSAP activity (normalized) (gene editing with Cas9): 0.239
